PMC5361862, “Insights into ClpXP proteolysis: heterooligomerization and partial deactivation enhance chaperone affinity and substrate turnover in Listeria monocytogenes” (Chemical Science, 2016)
Where a SMILES comes first, the peptide text is derived from it. [ ]: non-standard residue; d: D form. The star is where a group is joined. Phe(3,4-Cl2) = N[C@@H](Cc1ccc(Cl)c(Cl)c1)C(=O)O; hArg = N=C(N)NCCCC[C@H](N)C(=O)O; Aoc(2) = CCCCCC[C@H](N)C(=O)O; CH2Cl = ClC*

Experiments:
[1] = target: T1, LmClpP2 (Listeria monocytogenes, UniProt Q9RQI6); experiment: peptidase assay, Ac-Ala-hArg-Leu-ACC hydrolysis; assay type: biochemical; conditions: 1 μM ClpP; 200 μM substrate; inhibitor 1, 10, 100 μM; no ClpX; covalent
T1 construct: gene clpP; purified homotetradecamer; construct details in ESI

[2] = target: T2, LmClpXP2 (Listeria monocytogenes, UniProt Q9RQI6); experiment: proteolysis of GFP-SsrA, fluorescence; assay type: biochemical; conditions: with LmClpX; inhibitor 1, 10, 100 μM; covalent; inhibition
T2 construct: gene clpP; ClpP2 homotetradecamer (LmClpP14) with hexameric chaperone LmClpX6

[3] = target: T2, LmClpXP2; experiment: proteolysis of GFP-SsrA, fluorescence; assay type: biochemical
[4] = target: Listeria monocytogenes ClpP2 homotetradecamer (LmClpP2), unmodified (Listeria monocytogenes); experiment: not stated; oligomeric state of LmClpP2 after treatment with inhibitors (E2, D3, Aoc-CMK, Leu-CMK), Fig. S4; method and conditions are in the ESI
[5] = target: Listeria monocytogenes ClpX chaperone (LmClpX) (Listeria monocytogenes) (UniProt Q8Y7K9)
[6] = target: Listeria monocytogenes ClpX chaperone (LmClpX) (Listeria monocytogenes) (UniProt Q8Y7K9); remark: listed apart in the source
[7] = target: LmClpP2 treated with Leu-CMK (Listeria monocytogenes); experiment: not stated; oligomeric state of LmClpP2 after treatment with inhibitors (E2, D3, Aoc-CMK, Leu-CMK), Fig. S4; method and conditions are in the ESI
[8] = target: LmClpP2 treated with beta-lactone D3 (Listeria monocytogenes); experiment: as above
[9] = target: partially Aoc-CMK-modified LmClpP2 homotetradecamer (Listeria monocytogenes); experiment: as above
[10] = target: Listeria monocytogenes ClpX chaperone (LmClpX) (Listeria monocytogenes) (UniProt Q8Y7K9); remark: listed apart in the source

Q: With `COC(=O)c1ccc(OC(=O)CCc2cc(OC)c(OC)c(OC)c2)cc1` [AV170] as the compound, how does the “% activity” value [1] read?
A: AV170 and both CMK inhibitors were the most effective against LmClpP2

Q: What about the “% activity” value [2] of the same compound?
A: AV170 turned out to be the most effective inhibitor against each complex

Q: `CCCCCC[C@H](NC(=O)[C@H](CCCCNC(=N)N)NC(=O)[C@H](Cc1ccc(Cl)c(Cl)c1)NC(C)=O)C(=O)CCl` [Aoc-CMK] (Ac-[Phe(3,4-Cl2)]-[hArg]-[Aoc(2)]-CH2Cl) was tested. Which activity at 5 µM [3] did it give?
A: 162%

Q: With “Listeria monocytogenes ClpP2 homotetradecamer (LmClpP2), unmodified (enzyme)” as the compound, how does the stoichiometry N [4] read?
A: 14

Q: How did the K app from unfolding activity on GFP-LmSsrA (0.125 uM) with 0.4 uM LmClpX6 and varying concentrations of LmClpP14 (S98A heterocomplex) [5] turn out when “LmClpP1/2 heterocomplex containing Ser98 to Ala mutations” was run?
A: 224 nM

Q: For “LmClpP1/2 heterooligomeric complex, wild type (LmClpP1^wt/2^wt)”, which K app from protease activity of LmClpXP1/2 at varying concentrations of LmClpP1/2 (LmClpP14) [6] is on record?
A: 85 nM

Q: How did the stoichiometry N [7] turn out when LmClpP2 treated with Leu-CMK (enzyme) was run?
A: 14

Q: Which stoichiometry N [8] does the source give for “LmClpP2 treated with beta-lactone D3 (enzyme)” here?
A: 14

Q: Which K app from unfolding activity on GFP-LmSsrA (0.125 uM) with 0.4 uM LmClpX6 and varying concentrations of LmClpP14 (S98A homocomplex) [5] does the source give for LmClpP2(S98A) homocomplex (enzyme) here?
A: 2360 nM

Q: Which results are given for “partially Aoc-CMK-modified LmClpP2 homotetradecamer (enzyme)”?
A: stoichiometry N [9]: 14; protease activity (GFP-SsrA degradation) of LmClpXP2 at incremental Aoc-CMK concentrations, DMSO control as 100%; strongest at 5 uM Aoc-CMK, abolished at 50 uM [10]: 162%
